This passage reports Kd results from PMC4374754 (2015).

This assay addresses T1, DNA polymerase V (UmuD′2C) (E. coli, UniProt P04152 1-422; P0AG11 25-139).
T1 chain 1: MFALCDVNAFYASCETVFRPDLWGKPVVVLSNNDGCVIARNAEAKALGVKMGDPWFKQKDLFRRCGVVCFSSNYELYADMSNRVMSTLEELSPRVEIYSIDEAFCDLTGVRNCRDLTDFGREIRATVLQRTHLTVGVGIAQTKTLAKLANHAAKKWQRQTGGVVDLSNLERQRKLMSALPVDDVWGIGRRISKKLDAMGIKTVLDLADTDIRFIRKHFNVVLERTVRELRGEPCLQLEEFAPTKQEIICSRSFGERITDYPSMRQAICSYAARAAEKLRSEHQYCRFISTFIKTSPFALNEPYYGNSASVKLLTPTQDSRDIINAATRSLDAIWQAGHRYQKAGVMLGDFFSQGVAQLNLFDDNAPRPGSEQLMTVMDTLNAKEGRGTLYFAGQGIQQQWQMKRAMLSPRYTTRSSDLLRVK
T1 chain 2: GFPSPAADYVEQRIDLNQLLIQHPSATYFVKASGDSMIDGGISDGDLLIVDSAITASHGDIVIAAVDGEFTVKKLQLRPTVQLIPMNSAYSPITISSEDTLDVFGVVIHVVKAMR
Description: FP; apparent Kd.

B1: wild-type E. coli RecA protein, fluorescein-labelled (natural protein)
chain: MAIDENKQKALAAALGQIEKQFGKGSIMRLGEDRSMDVETISTGSLSLDIALGAGGLPMGRIVEIYGPESSGKTTLTLQVIAAAQREGKTCAFIDAEHALDPIYARKLGVDIDNLLCSQPDTGEQALEICDALARSGAVDVIVVDSVAALTPKAEIEGEIGDSHMGLAARMMSQAMRKLAGNLKQSNTLLIFINQIRMKIGVMFGNPETTTGGNALKFYASVRLDIRRIGAVKEGENVVGSETRVKVVKNKIAAPFKQAEFQILYGEGINFYGELVDLGVKEKLIEKAGAWYSYKGEKIGQGKANATAWLKDNPETAKEIEKKVRELLLSNPNSTPDFSVDDSEGVAETNEDF
modifications: fluorescein (Fluorescein-EX Protein Labeling Kit); labelled residues not stated
For B1, the Kd is 0.239 µM.

B2: RecA D112R, fluorescein-labelled (natural protein)
chain: AIDENKQKALAAALGQIEKQFGKGSIMRLGEDRSMDVETISTGSLSLDIALGAGGLPMGRIVEIYGPESSGKTTLTLQVIAAAQREGKTCAFIDAEHALDPIYARKLGVDIRNLLCSQPDTGEQALEICDALARSGAVDVIVVDSVAALTPKAEIEGEIGDSHMGLAARMMSQAMRKLAGNLKQSNTLLIFINQIRMKIGVMFGNPETTTGGNALKFYASVRLDIRRIGAVKEGENVVGSETRVKVVKNKIAAPFKQAEFQILYGEGINFYGELVDLGVKEKLIEKAGAWYSYKGEKIGQGKANATAWLKDNPETAKEIEKKVRELLLSNPNSTPDFSVDDSEGVAETNEDF
modifications: fluorescein (Fluorescein-EX Protein Labeling Kit); labelled residues not stated
On to B2, for which the Kd was determined as 0.297 µM.
